Laboratory results taken from patent US12103957B2, “NYESO TCR” (MEDIGENE IMMUNOTHERAPIES GMBH, priority 2018, dated 2024).

Tests used:
Assay type in all cases: cell-based, human
[1] = test system: T2 cells loaded with NY-ESO-1/LAGE-1157-165 (SLL) peptide (T2(SLL)); assay: Secretion of MIP-1α and MIP-1β, multiplex assay (Milliplex MAP Kit); details: T2(SLL) 10^−5 M; ratio 1:1, 10 000 cells each; 18 hours; two donors; compared with the other TCR
Procedure: As negative control, T11.8-10-17- or benchmark-transgenic CD8^+ T cells were stimulated with HLA-A*02:01 positive FTV-loaded T2 cells or untransduced CD8^+ enriched PBMC (CD8_ut) were co-cultured with peptide-loaded T2 cells. Furthermore, T2 cells or T cells were cultured separately.
Target cells and T cells were co-cultured at a ratio of 1:1 using 10 000 target cells and 10 000 T11.8-10-17- or benchmark-TCR-transduced T cells. Secretion of MIP-1α and MIP-1β by either T11.8-10-17- or benchmark-transgenic CD8^+ T cells was determined 18 hours after setting up the co-culture by multiplex assay using the Milliplex MAP Kit and analyzed by the MagPix analyzer.

[2] = test system: MM415 tumor cell line (HLA-A*02 positive, NY-ESO-1/LAGE-1 positive); assay: Killing of tumor cells, Annexin V live-cell imaging (IncuCyte ZOOM); details: TCR-transduced CD8+ T cells, effector-to-target about 4:1
Procedure: (§1) The killing capacity of T11.8-10-17- or benchmark-TCR-transduced CD8^+ T cells (CD8-T11.8-10-17 or CD8 benchmark-TCR) was evaluated by co-culturing with the HLA-A*02 positive NY-ESO-1/LAGE-1 positive tumor cell line Me1624.38 (FIG. 2a). In addition, killing of CD8-T11.8-10-17 was also tested with the HLA-A*02 positive NY-ESO-1/LAGE-1 positive tumor cell line MM415 (FIG. 2b). As a negative control, untransduced CD8^+ enriched PBMC were used as effector cells (CD8 UT) or the HLA-A*02 positive but NY-ESO-1/LAGE-1 negative tumor cell line SK-Me123 was used as target cells. The co-cultures were set-up at an effector-to-target ratio of about 4:1, i.e. 10,000 adherent tumor cells were seeded one day prior to the co-culture and subsequently 40,000 transgenic TCR^+ T cells were added. An increase of red fluorescent target cells (Total Integrated Intensity in GCU×μm^2/Image) that indicates induction of apoptosis of target cells (Annexin V, red), was measured every four hours over a total time period of 67 hours using live-cell monitoring (IncuCyte® ZOOM).

[3] = test system: Me1624.38 tumor cell line (HLA-A*02 positive, NY-ESO-1/LAGE-1 positive); assay: as above; details: TCR-transduced CD8+ T cells, effector-to-target about 4:1
Procedure: as §1

[4] = test system: SK-Me123 tumor cell line (HLA-A*02 positive, NY-ESO-1/LAGE-1 negative); assay: as above; details: antigen-negative target line; effector-to-target about 4:1; 67 hours
Procedure: as §1

[5] = test system: peptide-loaded T2 cells; assay: IFN-γ ELISA, peptide-loaded T2 controls of the tumor cell line panel
Description: (§2) IFN-γ ELISA was used to assess cytokine secretion upon stimulation of T11.8-10-17-transduced T cells (CD8_T11.8-10-17) with a panel of HLA-A*02:01 positive, NY-ESO-1/LAGE-1 positive human tumor cell lines (Me1624.38, FM6, FM3.29, MM415, SAOS2, U266). NY-ESO-1/LAGE-1 expression in the target cells was detected by NanoString nCounter® analysis. As positive control for T11.8-10-17-transduced T cells, T2 cells were loaded with SLL-peptide (10^−5 M). As negative controls for the effector function, T11.8-10-17-transduced T cells were co-cultured with T2 cells loaded with irrelevant (FTV) peptide (10^−5M), SK-Me123 (HLA-A2pos, NY-ESO-1/LAGE-1neg) or SKM1 (HLA-A2pos, NY-ESO-1/LAGE-1neg), or untransduced T cells were co-cultured with tumor cells or peptide-loaded T2 cells. Cultivation of target cells without effector cells served as an additional negative control. Target cells were co-cultured with T cells at a ratio of 2:1 using 40,000 T11.8-10-17-transduced T cells and 20,000 target cells. (FIG. 3).

[6] = test system: peptide-loaded T2 cells; assay: Recognition of mismatched epitopes: IFN-γ ELISA with peptide-loaded T2 cells; details: ratio 1:1
Procedure: As a negative control, untransduced CD8^+ enriched PBMC (CD8_UT) were used as effector cells or TCR-transgenic T cells were stimulated with irrelevant (irr.; […]) peptide-loaded T2 cells (10^−5 M). Background IFN-γ secretion of target cells was also tested (targets only). As a positive control T cells were activated by SLL peptide (#10*)-loaded T2 cells (10^−5 M). […] IFN-γ secretion was measured by standard ELISA in [pg/mL].

[7] = test system: HLA-A*02:01-transgenic K562 cells; assay: Recognition of ivtRNA mismatched epitopes: IFN-γ ELISA with HLA-A*02:01-transgenic K562 cells; details: 16 hours
Procedure: For this experiment, 3×10^6 K562 cells in 300 μl RPMI1640 medium were electroporated with 20 μg either NY-ESO-1 or eGFP-ivtRNA (300 Volt and 300 μF; exponential pulse). As positive control, T cells were stimulated with HLA-A*02:01-transgenic K562 cells loaded with either the SLL-peptide (10^−5M) (K562-A2+SLL) or with 20 μg ivtRNA encoding NY-ESO-1 (K562-A2+NY-ESO-1). As a negative control HLA-A*02:01-transgenic K562 were either loaded with irrelevant peptide (10^−5M; K562-A2+FTV) or with 20 μg ivtRNA encoding eGFP (K562-A2+eGFP).

[8] = test system: SAOS2; assay: IFN-γ ELISA, stimulation by tumor cell lines; details: transduced CD8+ T cells 40,000, target cells 20,000
Description: as §2

[9] = test system: FM6; assay: IFN-γ ELISA, stimulation by tumor cell lines; details: transduced CD8+ T cells 40,000, target cells 20,000
Description: as §2

[10] = test system: SK-Me123 (HLA-A2pos, NY-ESO-1/LAGE-1neg); assay: IFN-γ ELISA, stimulation by tumor cell lines; details: antigen-negative line; transduced CD8+ T cells 40,000, target cells 20,000
Description: as §2

[11] = test system: SKM1 (HLA-A2pos, NY-ESO-1/LAGE-1neg); assay: IFN-γ ELISA, stimulation by tumor cell lines; details: antigen-negative line; transduced CD8+ T cells 40,000, target cells 20,000
Description: as §2

[12] = test system: MM415; assay: IFN-γ ELISA, stimulation by tumor cell lines; details: transduced CD8+ T cells 40,000, target cells 20,000
Description: as §2

[13] = test system: Me1624.38; assay: IFN-γ ELISA, stimulation by tumor cell lines; details: transduced CD8+ T cells 40,000, target cells 20,000
Description: as §2

[14] = test system: FM3.29; assay: IFN-γ ELISA, stimulation by tumor cell lines; details: transduced CD8+ T cells 40,000, target cells 20,000
Description: as §2

[15] = test system: U266; assay: IFN-γ ELISA, stimulation by tumor cell lines; details: transduced CD8+ T cells 40,000, target cells 20,000
Description: as §2

B1: T11.8-10-17: TCR of T cell clone T11.8-10-17 specific for NY-ESO-1/LAGE-1157-165 on HLA-A*02:01; variable α SEQ ID NO: 10, variable β SEQ ID NO: 11 (protein, listed as Homo sapiens)
alpha: MKSLRVLLVILWLQLSWVWSQQKEVEQNSGPLSVPEGAIASLNCTYSDRGSQSFFWYRQYSGKSPELIMFIYSNGDKEDGRFTAQLNKASQYVSLLIRDSQPSDSATYLCAADDKIIFGKGTRLHILPN
beta: MGSWTLCCVSLCILVAKHTDAGVIQSPRHEVTEMGQEVTLRCKPISGHDYLFWYRQTMMRGLELLIYFNNNVPIDDSGMPEDRFSAKMPNASFSTLKIQPSEPRDSAVYFCASSRGGSGYTFGSGTRLTVVE
- MIP-1α secretion [1]: markedly lower amounts
- MIP-1β secretion [1]: markedly lower amounts
- start of increase of red fluorescence (killing) [2]: 10 h
- killing of target cells (increase of red fluorescence, Annexin V) ([2]; 67 hours): showed killing
- start of increase of red fluorescence (killing) [3]: 10 h
- killing of target cells (increase of red fluorescence, Annexin V) ([3]; 67 hours): showed killing
- killing of target cells (increase of red fluorescence, Annexin V) [4]: no increase of red fluorescence was observed
- IFN-γ secretion ([5]; T2 cells loaded with SLL-peptide (10^−5 M)): high amounts of IFN-γ secretion
- recognition (IFN-γ secretion) ([5]; T2 cells loaded with irrelevant (FTV) peptide (10^−5 M)): no recognition
- peptide recognition (IFN-γ secretion) ([6]; T2 + irrelevant peptide (FTVSGNILTI) 10^−5 M): not the irrelevant peptide
- cross-recognition (IFN-γ secretion) ([6]; T2 + peptide #3 10^−5 M): cross-recognized
- cross-recognition (IFN-γ secretion) ([6]; T2 + peptide #6 10^−5 M): slightly activated
- cross-recognition (IFN-γ secretion) ([6]; T2 + peptide #11 10^−5 M): slightly activated
- cross-recognition (IFN-γ secretion) ([6]; T2 + peptide #32 10^−5 M): slightly activated
- cross-recognition (IFN-γ secretion) ([6]; T2 + peptide #34 10^−5 M): slightly activated
- cross-recognition (IFN-γ secretion) ([6]; T2 + peptide #51 10^−5 M): slightly activated
- peptide recognition (IFN-γ secretion) ([6]; T2 + positive control peptide SLL (SLLMWITQC) 10^−5 M): recognized
- cross-recognition of internally processed peptide (IFN-γ release) ([7]; K562-A2+#3, ivtRNA long peptide): no cross-recognition
- cross-recognition of internally processed peptide (IFN-γ release) ([7]; K562-A2+#6, ivtRNA long peptide): no cross-recognition
- cross-recognition of internally processed peptide (IFN-γ release) ([7]; K562-A2+#11, ivtRNA long peptide): no cross-recognition
- cross-recognition of internally processed peptide (IFN-γ release) ([7]; K562-A2+#32, ivtRNA long peptide): no cross-recognition
- cross-recognition of internally processed peptide (IFN-γ release) ([7]; K562-A2+#34, ivtRNA long peptide): no cross-recognition
- cross-recognition of internally processed peptide (IFN-γ release) ([7]; K562-A2+#51, ivtRNA long peptide): no cross-recognition
- recognition (IFN-γ release) ([7]; K562-A2+NYESO, NY-ESO-1-ivtRNA transfected): recognized
- recognition (IFN-γ release) ([7]; K562-A2+SLL, peptide-loaded 10^−5 M, target:T cell 2:1): recognized
- recognition (IFN-γ release) ([7]; K562-A2+eGFP ivtRNA): did not recognize
- recognition (IFN-γ release) ([7]; K562-A2+irr., irrelevant peptide 10^−5 M): did not recognize
- IFN-γ secretion [8]: high amounts of IFN-γ secretion
- IFN-γ secretion [9]: high amounts of IFN-γ secretion
- recognition (IFN-γ secretion) [10]: no recognition
- recognition (IFN-γ secretion) [11]: no recognition
- IFN-γ secretion [12]: high amounts of IFN-γ secretion
- IFN-γ secretion [13]: high amounts of IFN-γ secretion
- IFN-γ secretion [14]: high amounts of IFN-γ secretion
- IFN-γ secretion [15]: high amounts of IFN-γ secretion
